Legend:
[1] = Phase 1 trial: pharmacokinetics of surufatinib and toripalimab (non-compartmental analysis); assay type: in vivo, human
Text: Blood samples were collected for PK evaluation at multiple time points on Cycle 1 Day 1, Cycle 2 Day 1, and Cycle 3 Day 1 for surufatinib and toripalimab, respectively.
DLT events were based on the DLT evaluable population, including patients who received at least 1 cycle of treatment and completed all safety assessments within the DLT assessment window or discontinued early due to DLT in the dose-escalation stage. All safety analyses, progression-free survival (PFS), and overall survival (OS) statistics were based on the safety population, including patients who received at least 1 dose of any study drug. All efficacy endpoints, excluding PFS and OS, were analyzed based on the efficacy evaluable population, including all patients who received at least 1 dose of any study drug and had tumor assessment at baseline and post drug administration prior to initiation of new anti-cancer therapies. The PK analysis was based on the PK population, which included all patients who received at least one dose of the study drug, had at least one PK sample collected and analyzed, and had no protocol deviation that might affect the PK data.
Two-sided 95% confidence interval (CI) of ORR and DCR were computed using the Exact (Clopper–Pearson) method. For time-to-event variables [PFS, OS, DoR (duration of response) and TTR (time to response)], median event time as well as the corresponding 95% CI were estimated using Kaplan–Meier method. All statistical analyses were performed using SAS 9.4 software. Adverse events (AEs) were graded by NCI CTCAE (Common Terminology Criteria for Adverse Events) v4.03, and coded using the Medical Dictionary for Regulatory Activities (MedDRA) v23.1. Treatment-related AEs (TRAEs) referred to AEs related to surufatinib or toripalimab, which were judged by the investigators. PK parameters were calculated by non-compartmental analysis using Phoenix WinNonlin v8.0.

[2] = system: NEN patients (Ki-67 ≥ 10%); set-up: method as in Lu et al. [2020]; conditions: NEN patients (Ki-67 ≥ 10%) after failure of first line therapy; ref Lu et al. [2020]; cited from earlier work
[3] = surufatinib 200 mg + toripalimab 240 mg, C1D1, N 6
[4] = surufatinib 200 mg + toripalimab 240 mg, C2D1, N 4
[5] = surufatinib 200 mg + toripalimab 240 mg, C3D1, N 3
[6] = surufatinib 250 mg + toripalimab 240 mg, C1D1, N 12
[7] = surufatinib 250 mg + toripalimab 240 mg, C2D1, N 11
[8] = surufatinib 250 mg + toripalimab 240 mg, C3D1, N 10
[9] = surufatinib 300 mg + toripalimab 240 mg, C1D1, N 12
[10] = surufatinib 300 mg + toripalimab 240 mg, C2D1, N 10
[11] = surufatinib 300 mg + toripalimab 240 mg, C3D1, N 9

Substance: toripalimab
- Toripalimab accumulation ratio of AUC0-τ ([1]; Cycle 2 Day 1 compared to Cycle 1 Day 1, 240 mg Q3W): 1.3–1.5
- Toripalimab exposure (AUC0-τ) across surufatinib dose levels ([1]; concomitant administration with surufatinib at different dose levels): similar
- Toripalimab AUC0-τ, geometric mean (CV%) [1, 3]: 15925 (22.8) h×µg/mL
- Toripalimab CL, geometric mean (CV%) [1, 3]: 11.1 (30.8) mL/h
- Toripalimab Cmax, geometric mean (CV%) [1, 3]: 78.1 (15.2) µg/mL
- Toripalimab Tmax, median [1, 3]: 1.96 h
- Toripalimab t1/2, median [1, 3]: 231 h
- Toripalimab AUC0-τ, geometric mean (CV%) [1, 4]: 21512 (26.4) h×µg/mL
- Toripalimab CL, geometric mean (CV%) [1, 4]: 11.2 (24.3) mL/h
- Toripalimab Cmax, geometric mean (CV%) [1, 4]: 96.2 (17.9) µg/mL
- Toripalimab Tmax, median [1, 4]: 2.63 h
- Toripalimab t1/2, median [1, 4]: 320 h
- Toripalimab AUC0-τ, geometric mean (CV%) [1, 5]: 24626 (34.9) h×µg/mL
- Toripalimab CL, geometric mean (CV%) [1, 5]: 9.75 (29.6) mL/h
- Toripalimab Cmax, geometric mean (CV%) [1, 5]: 110 (29.0) µg/mL
- Toripalimab Tmax, median [1, 5]: 1.45 h
- Toripalimab t1/2, median [1, 5]: 390 h
- Toripalimab AUC0-τ, geometric mean (CV%) [1, 6]: 14142 (25.6) h×µg/mL
- Toripalimab CL, geometric mean (CV%) [1, 6]: 13.0 (32.9) mL/h
- Toripalimab Cmax, geometric mean (CV%) [1, 6]: 71.4 (21.6) µg/mL
- Toripalimab Tmax, median [1, 6]: 1.85 h
- Toripalimab t1/2, median [1, 6]: 237 h
- Toripalimab AUC0-τ, geometric mean (CV%) [1, 7]: 17176 (31.5) h×µg/mL
- Toripalimab CL, geometric mean (CV%) [1, 7]: 14.0 (37.2) mL/h
- Toripalimab Cmax, geometric mean (CV%) [1, 7]: 83.8 (24.5) µg/mL
- Toripalimab Tmax, median [1, 7]: 1.13 h
- Toripalimab t1/2, median [1, 7]: 259 h
- Toripalimab AUC0-τ, geometric mean (CV%) [1, 8]: 20157 (39.5) h×µg/mL
- Toripalimab CL, geometric mean (CV%) [1, 8]: 11.9 (52.0) mL/h
- Toripalimab Cmax, geometric mean (CV%) [1, 8]: 97.4 (25.0) µg/mL
- Toripalimab Tmax, median [1, 8]: 1.87 h
- Toripalimab t1/2, median [1, 8]: 246 h
- Toripalimab AUC0-τ, geometric mean (CV%) [1, 9]: 16458 (25.0) h×µg/mL
- Toripalimab CL, geometric mean (CV%) [1, 9]: 11.0 (22.1) mL/h
- Toripalimab Cmax, geometric mean (CV%) [1, 9]: 81.2 (24.5) µg/mL
- Toripalimab Tmax, median [1, 9]: 1.12 h
- Toripalimab t1/2, median [1, 9]: 234 h
- Toripalimab AUC0-τ, geometric mean (CV%) [1, 10]: 20660 (33.7) h×µg/mL
- Toripalimab CL, geometric mean (CV%) [1, 10]: 11.6 (27.6) mL/h
- Toripalimab Cmax, geometric mean (CV%) [1, 10]: 98.1 (27.5) µg/mL
- Toripalimab Tmax, median [1, 10]: 1.26 h
- Toripalimab t1/2, median [1, 10]: 246 h
- Toripalimab AUC0-τ, geometric mean (CV%) [1, 11]: 20063 (46.6) h×µg/mL
- Toripalimab CL, geometric mean (CV%) [1, 11]: 12.0 (35.8) mL/h
- Toripalimab Cmax, geometric mean (CV%) [1, 11]: 103 (33.2) µg/mL
- Toripalimab Tmax, median [1, 11]: 1.17 h
- Toripalimab t1/2, median [1, 11]: 241 h
- DCR [2]: 35%
- ORR [2]: 20%

Source: paper PMC9931771, “Surufatinib plus toripalimab in patients with advanced solid tumors: a single-arm, open-label, phase 1 trial” (Journal of Cancer Research and Clinical Oncology, 2022)
